Source: patent US20210054077A1 (AMUNIX PHARMACEUTICALS, published 2021)

What was measured:
[1] = biological target: Biotinylated CD3CEµ antigen (Creative Biomart); test: BLI (ForteBio BLItz); biotinylated CD3 antigen on streptavidin biosensor, scFv dilution series in solution
[2] = biological target: human HER2 on cells (HER2 positive human carcinoma cells; CT26-huHER2 transfected cells; human cardiomyocytes) (human) (UniProt P04626); test: cell-based or functional assay
Cyno CD3 ϵ -Fc = biological target: T1, Cyno CD3 ϵ -Fc (cynomolgus monkey, UniProt Q95LI5 22-117); test: BLI (ForteBio Octet Red); target-Fc loaded on anti-human Fc biosensor, AC2275 as analyte 1010 nM to 16 nM
T1 construct: also called cynomolgus monkey CD3; not shown: Fc part, captured on anti-human Fc biosensors
T1 sequence (looked up): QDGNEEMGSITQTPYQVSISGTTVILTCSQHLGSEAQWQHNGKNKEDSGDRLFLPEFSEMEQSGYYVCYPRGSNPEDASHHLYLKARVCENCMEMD

Human CD3 ϵ -Fc = biological target: T2, Human CD3 ϵ -Fc (human, UniProt P07766 23-126); test: as above
T2 construct: not shown: Fc part, captured on anti-human Fc biosensors
T2 sequence (P07766 23-126): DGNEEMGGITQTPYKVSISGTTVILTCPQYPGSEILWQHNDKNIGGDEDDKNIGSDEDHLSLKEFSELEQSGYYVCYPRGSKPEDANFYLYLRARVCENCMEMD

[3] = biological target: human HER2 on cells (HER2 positive human carcinoma cells; CT26-huHER2 transfected cells; human cardiomyocytes) (human, UniProt P04626 23-1255); test: cell-based or functional assay

Biotinylated CD3CEµ antigen (Creative Biomart), sequence (P07766 23-126): as above

B1: CD3.9 scFv (scFv)
scFv: ELVVTQEPSLTVSPGGTVTLTCRSSTGAVTTSNYANWVQQKPGQAPRGLIGGTNKRAPGTPARFSGSLLGGKAALTLSGVQPEDEAEYYCALWYSNLWVFGGGTKLTVLGATPPETGAETESPGETTGGSAESEPPGEGEVQLLESGGGLVQPGGSLKLSCAASGFTFNTYAMNWVRQAPGKGLEWVARIRSKYNNYATYYADSVKDRFTISRDDSKNTAYLQMNNLKTEDTAVYYCVRHGNFGNSYVSWFAYWGQGTLVTVSS
Kd [1]: 75 nM

B2: CD3.25 scFv (scFv)
scFv: ELVVTQEPSHTVSPGGTVTLTCRSSTGAVTSSNYANWVQQKPGQAPRGLIGGTIKRAPGTPARFSGSLLGGKAALTLSGVQPEDEAEYYCALWYPNLWVFGGGTKLTVLGATPPETGAETESPGETTGGSAESEPPGEGEVQLLESGGGIVQPGGSLKLSCAASGFTFNTYAMNWVRQAPGKGLEWVARIRSKYNNYATYYADSVKDRFTISRDDSKNTVYLQMNNLKTEDTAVYYCVRHENFGNSYVSWFAHWGQGTLVTVSS
Kd [1]: 215 nM

B3: CD3.23 scFv (scFv)
scFv: ELVVTQEPSLTVSPGGTVTLTCRSSNGAVTSSNYANWVQQKPGQAPRGLIGGTNKRAPGTPARFSGSLLGGKAALTLSGVQPEDEAVYYCALWYPNLWVFGGGTKLTVLGATPPETGAETESPGETTGGSAESEPPGEGEVQLLESGGGIVQPGGSLKLSCAASGFTFNTYAMNWVRQAPGKGLEWVARIRSKYNNYATYYADSVKDRFTISRDDSKNTVYLQMNNLKTEDTAVYYCVRHENFGNSYVSWFAHWGQGTLVTVSS
Kd [1]: 175 nM

B4: CD3.24 scFv (scFv)
scFv: ELVVTQEPSLTVSPGGTVTLTCRSSNGEVTTSNYANWVQQKPGQAPRGLIGGTIKRAPGTPARFSGSLLGGKAALTLSGVQPEDEAVYYCALWYPNLWVFGGGTKLTVLGATPPETGAETESPGETTGGSAESEPPGEGEVQLLESGGGIVQPGGSLKLSCAASGFTFNTYAMNWVRQAPGKGLEWVARIRSKYNNYATYYADSVKDRFTISRDDSKNTVYLQMNNLKTEDTAVYYCVRHENFGNSYVSWFAHWGQGTLVTVSS
Kd [1]: 296 nM

B5: CD3.26 scFv (scFv)
scFv: ELVVTQEPSHTVSPGGTVTLTCRSSTGEVTTSNYANWVQQKPGQAPRGLIGGTIKRAPGTPARFSGSLLGGKAALTLSGVQPEDEAEYYCALWYPNLWVFGGGTKLTVLGATPPETGAETESPGETTGGSAESEPPGEGEVQLLESGGGIVQPGGSLKLSCAASGFTFNTYAMNWVRQAPGKGLEWVARIRSKYNNYATYYADSVKDRFTISRDDSKNTVYLQMNNLKTEDTAVYYCVRHENFGNSYVSWFAHWGQGTLVTVSS
Kd [1]: 221 nM

B6: pJB0244, masked anti-HER2 x anti-CD3 bispecific antigen binding polypeptide with two XTEN and two RSR2295 release segments (bispecific antibody, part only; not given: AE868 XTEN, scFv linker, not shown: small tags and cut ends)
chain, part: HHHHHHSPAGSPTSTEEGTSESATPESGPGTSTEPSEGSAPGTSESATPESGPGSEPATSGSETPGTSESATPESGPGSEPATSGSETPGTSESATPESGPGTSTEPSEGSAPGSPAGSPTSTEEGTSESATPESGPGSEPATSGSETPGTSESATPESGPGSPAGSPTSTEEGSPAGSPTSTEEGTSTEPSEGSAPGTSESATPESGPGTSESATPESGPGTSESATPESGPGSEPATSGSETPGSEPATSGSETPGSPAGSPTSTEEGTSTEPSEGSAPGTSTEPSEGSAPGGSAPEAGRSANHTPAGLTGPDIQMTQSPSSLSASVGDRVTITCKASQDVSIGVAWYQQKPGKAPKLLIYSASYRYTGVPSRFSGSGSGTDFTLTISSLQPEDFATYYCQQYYIYPYTFGQGTKVEIKGATPPETGAETESPGETTGGSAESEPPGEGEVQLVESGGGLVQPGGSLRLSCAASGFTFTDYTMDWVRQAPGKGLEWVADVNPNSGGSIYNQRFKGRFTLSVDRSKNTLYLQMNSLRAEDTAVYYCARNLGPSFYFDYWGQGTLVTVSSELVVTQEPSLTVSPGGTVTLTCRSSNGAVTSSNYANWVQQKPGQAPRGLIGGTNKRAPGTPARFSGSLLGGKAALTLSGVQPEDEAVYYCALWYPNLWVFGGGTKLTVLGATPPETGAETESPGETTGGSAESEPPGEGEVQLLESGGGIVQPGGSLKLSCAASGFTFNTYAMNWVRQAPGKGLEWVARIRSKYNNYATYYADSVKDRFTISRDDSKNTVYLQMNNLKTEDTAVYYCVRHENFGNSYVSWFAHWGQGTLVTVSSEAGRSANHTPAGLTGP
EC50 (pM), cytotoxicity (Caspase-Glo 3/7), BT-474 cells with human PBMC [2]: 66000 pM
EC50 (pM), cytotoxicity (Caspase-Glo 3/7), SK-Br3 cells with human PBMC [2]: 19500 pM
EC50 (pM), cytotoxicity (Caspase-Glo 3/7), SKOV-3 cells with human PBMC [2]: 14100 pM

B7: AC2275, bivalent anti-HER2, anti-CD3 XTENylated binder (HER2-XPAT of Example 24) (bispecific antibody)
chain: HHHHHHSPAGSPTSTEEGTSESATPESGPGTSTEPSEGSAPGTSESATPESGPGSEPATSGSETPGTSESATPESGPGSEPATSGSETPGTSESATPESGPGTSTEPSEGSAPGSPAGSPTSTEEGTSESATPESGPGSEPATSGSETPGTSESATPESGPGSPAGSPTSTEEGSPAGSPTSTEEGTSTEPSEGSAPGTSESATPESGPGTSESATPESGPGTSESATPESGPGSEPATSGSETPGSEPATSGSETPGSPAGSPTSTEEGTSTEPSEGSAPGTSTEPSEGSAPGGSAPEAGRSANHTPAGLTGPATSGSETPGTDIQMTQSPSSLSASVGDRVTITCKASQDVSIGVAWYQQKPGKAPKLLIYSASYRYTGVPSRFSGSGSGTDFTLTISSLQPEDFATYYCQQYYIYPYTFGQGTKVEIKGATPPETGAETESPGETTGGSAESEPPGEGEVQLVESGGGLVQPGGSLRLSCAASGFTFTDYTMDWVRQAPGKGLEWVADVNPNSGGSIYNQRFKGRFTLSVDRSKNTLYLQMNSLRAEDTAVYYCARNLGPSFYFDYWGQGTLVTVSSGGGGSELVVTQEPSLTVSPGGTVTLTCRSSNGAVTSSNYANWVQQKPGQAPRGLIGGTNKRAPGTPARFSGSLLGGKAALTLSGVQPEDEAVYYCALWYPNLWVFGGGTKLTVLGATPPETGAETESPGETTGGSAESEPPGEGEVQLLESGGGIVQPGGSLKLSCAASGFTFNTYAMNWVRQAPGKGLEWVARIRSKYNNYATYYADSVKDRFTISRDDSKNTVYLQMNNLKTEDTAVYYCVRHENFGNSYVSWFAHWGQGTLVTVSSGTAEAASASGEAGRSANHTPAGLTGPPGSPAGSPTSTEEGTSESATPESGPGTSTEPSEGSAPGSPAGSPTSTEEGTSTEPSEGSAPGTSTEPSEGSAPGTSESATPESGPGSEPATSGSETPGSEPATSGSETPGSPAGSPTSTEEGTSESATPESGPGTSTEPSEGSAPGTSTEPSEGSAPGSPAGSPTSTEEGTSTEPSEGSAPGTSTEPSEGSAPGTSESATPESGPGTSTEPSEGSAPGTSESATPESGPGSEPATSGSETPGTSTEPSEGSAPGTSTEPSEGSAPGTSESATPESGPGTSESATPESGPGSPAGSPTSTEEGTSESATPESGPGSEPATSGSETPGTSESATPESGPGTSTEPSEGSAPGTSTEPSEGSAPGTSTEPSEGSAPGTSTEPSEGSAPGTSTEPSEGSAPGTSTEPSEGSAPGSPAGSPTSTEEGTSTEPSEGSAPGTSESATPESGPGSEPATSGSETPGTSESATPESGPGSEPATSGSETPGTSESATPESGPGTSTEPSEGSAPGTSESATPESGPGSPAGSPTSTEEGSPAGSPTSTEEGSPAGSPTSTEEGTSESATPESGPGTSTEPSEGSAPGAAEPEA
notes: also called HER2-XPAT 2275
Kd (Cyno CD3 ϵ -Fc): 170 nM
Kd (Human CD3 ϵ -Fc): 111 nM
EC50, % CD69+ T cells in human PBMC co-cultured with SK-OV-3 cells (flow cytometry) [3]: 3.63 nM
IC50, T-cell directed cytotoxicity (CellTiter-Glo ATP assay), BT474 cells with human PBMC [3]: 1.36 nM
IC50, T-cell directed cytotoxicity (CellTiter-Glo ATP assay), MCF7 cells with human PBMC [3]: > 26.7 nM
IC50, T-cell directed cytotoxicity (CellTiter-Glo ATP assay), SKOV3 cells with human PBMC [3]: 15.3 nM
